Measured values reported in patent publication US7638490B2, “Methods of affecting feeding and weight in mammals by administration of relaxin-3” (priority 2004, dated 2009).

T1: SALPR (Homo sapiens, UniProt Q9NSD7)
T1 construct: expressed in transfected cells; host or cells: SE302 cells (HEK293 clone carrying a CRE-VIP promoter PLAP reporter), transduced with retrovirus vector pBabeCL(SALPR)IH and selected with hygromycin
T1 sequence (Q9NSD7 1-469): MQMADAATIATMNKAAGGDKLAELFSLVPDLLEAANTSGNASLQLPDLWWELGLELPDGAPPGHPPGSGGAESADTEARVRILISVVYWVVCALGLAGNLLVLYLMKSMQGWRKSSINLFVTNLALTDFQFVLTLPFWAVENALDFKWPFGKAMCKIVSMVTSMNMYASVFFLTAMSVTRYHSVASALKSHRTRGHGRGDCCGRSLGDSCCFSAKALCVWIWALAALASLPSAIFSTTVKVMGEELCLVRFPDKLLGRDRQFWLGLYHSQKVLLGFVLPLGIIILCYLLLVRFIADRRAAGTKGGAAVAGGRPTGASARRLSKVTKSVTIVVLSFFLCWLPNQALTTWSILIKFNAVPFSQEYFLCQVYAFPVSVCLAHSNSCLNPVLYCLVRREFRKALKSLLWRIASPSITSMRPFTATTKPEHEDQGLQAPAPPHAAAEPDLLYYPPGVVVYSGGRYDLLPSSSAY

B1: relaxin-3: polypeptide called relaxin-3 (INSL7) comprising the amino acid sequence of SEQ ID NO: 2; natural ligand of SALPR (protein, listed as Homo sapiens)
chain: MARYMLLLLLAVWVLTGELWPGAEARAAPYGVRLCGREFIRAVIFTCGGSRWRRSDILAHEAMGDTFPDADADEDSLAGELDEAMGSSEWLALTKSPQAFYRGRPSWQGTPGVLRGSRDVLAGLSSSCCKWGCSKSEISSLC

Experiments:
[1] = target: T1, SALPR; assay: Suppression of forskolin-increased transcription activity (CRE-PLAP reporter) in SALPR-SE302 cells; assay type: cell-based; details: forskolin 1 μmol/L, 1 day incubation, alkaline phosphatase reporter
Protocol: On the following day, relaxin-3 (Phoenix Pharmaceuticals) or insulin (Invitrogen) diluted with an assay medium (DMEM supplemented with 0.1% bovine serum albumin) in specified concentrations was added, after which forskolin (Calbiochem) was added to make a final concentration of 1 μmol/L. After 1 day incubation, 15 μl each of the cell supernatant was recovered and then transferred to a 96-well plate for chemiluminescence measurement (Sumitomo Bakelite), 60 μl of buffer solution for assay (280 mmol/L Na2CO3—NaHCO3, 8 mmol/L MgSO4, pH 10) and 70 μl of Lumiphos530 (Lumigen) were added and the reaction was carried out at room temperature for 1 hour, after which chemiluminescence for each well was measured by a fusion plate reader (Perkin Elmer) to assess the transcription activity.

[2] = Blood leptin concentration after single intracerebroventricular administration; assay type: in vivo, rat; details: rats, single icv administration, about 3 hours after administration, vs vehicle, t-test p<0.05
Protocol: The above-mentioned rats were anesthetized with Nembutal after the feeding measurement (about 3 hours after administration) and the blood was taken from the abdominal aorta. The blood taken was centrifuged at 1,750×g for 15 minutes and the resulting supernatant was stored at −80° C. Later, the amount of leptin in the supernatant was quantitatively determined by a rat leptin quantification ELISA kit (Amersham Bioscience).

[3] = Epididymal fat weight, blood leptin and blood insulin after chronic intracerebroventricular administration; assay type: in vivo, rat; details: rats, chronic icv administration, day 14, vs vehicle
Protocol: After measuring body weight and the amount of feed on the last day of the experiment (day 14), the rats were anesthetized with Nembutal, epididymal fat was taken and the total fat weight was measured (FIG. 9). Further, the blood was taken from the abdominal aorta. The blood was centrifuged at 1,750×g for 15 minutes and the resulting supernatant was stored at −80° C. Later, the amount of leptin in the supernatant was quantitatively determined by a rat leptin measuring kit (L) (IBL) (FIG. 10A). Further, the amount of insulin in the supernatant was quantitatively determined by an ultra sensitive rat insulin measuring kit (Morinaga Institute of Biological Science) (FIG. 10B).

[4] = Spontaneous locomotor activity under chronic intracerebroventricular administration; assay type: in vivo, rat; details: rats, chronic icv; light phase days 2 and 7, dark phase days 3 and 8
Protocol: Spontaneous locomotor activity was measured using a Versamax system (Accuscan) in the light phase and dark phase on days when significant difference in body weight increasing activity in the rats receiving relaxin-3 administration was recognized.

[5] = Body weight gain under chronic intracerebroventricular administration (locomotor study); assay type: in vivo, rat; details: Wistar male rats (5 weeks of age), chronic icv by osmotic pump, from day 1 after administration
Protocol: A relaxin-3 solution was prepared by dissolving relaxin-3 (Peptide Institute, Inc.) in physiological saline at a concentration of 100 μmol/L. A vehicle solution (physiological saline) or the relaxin-3 solution was poured into an osmotic pump (Alzet osmotic pump model 1002 (DURECT), delivering at 6 μ/day), a tube and a cannula for administration, after which they were connected together. Wistar male rats (5 weeks of age; Japan Charles River) were fed feed for experimental animals (MF; Oriental Yeast) and adapted to individual cages for 5 days. Under anesthesia, a guide cannula was inserted into the lateral cerebroventricle of these rats (170-200 g) and an osmotic pump was implanted under the skin. The operation date was set to be day 0. The rats had free access to feed and water and the body weight was measured every morning, except on days for locomotor activity measurement (FIG. 11).

[6] = target: T1, SALPR; assay: Screening for relaxin-3 antagonistic substance using SALPR-SE302 cells (CRE-PLAP reporter); assay type: cell-based; details: 3 μmol/L forskolin, relaxin-3 at 3 nmol/L
[7] = Body weight gain and amount of feeding under chronic intracerebroventricular administration; assay type: in vivo, rat; details: Wistar male rats, chronic icv by osmotic pump, 100 μmol/L at 6 μl/day
Protocol: A relaxin-3 solution was prepared by dissolving relaxin-3 (Peptide Institute, Inc.) in physiological saline at a concentration of 100 μmol/L. A vehicle solution (physiological saline) or the relaxin-3 solution was poured into an osmotic pump (Alzet osmotic pump model 1002 (DURECT); delivering 6 μl/day), a tube and a cannula for administration, after which they were connected together. Wistar male rats (6 weeks of age; Japan Charles River) were fed feed for experimental animals (MF; Oriental Yeast) and adapted to individual cages for 4 days. Under anesthesia, a guide cannula was inserted into the lateral cerebroventricle of these rats (250-270 g) and an osmotic pump was implanted under the skin. The rats had free access to feed and their body weight and feeding were measured every morning. Further, the decrease in the amount of feed per day is shown as the amount of feeding (FIG. 8).

[8] = Amount of feeding after single intracerebroventricular administration; assay type: in vivo; details: Wistar male rats, single icv, about 50 pmol/rat, 2 hours after administration, vs vehicle, t-test p<0.01
Protocol: Wistar male rats (7 weeks of age; Japan Charles River) were fed feed for experimental animals (MF; Oriental Yeast) to be adapted. The rats (250 to 300 g) received cannulation into the lateral cerebroventricle under anesthesia. Administration experiments were carried out a week or later. Relaxin-3 (60 μg; Phoenix Pharmaceuticals) was dissolved in DMSO and added with an artificial cerebrospinal fluid to make a final concentration of 200 μmol/L. The deposited precipitate was removed by centrifugation and the resulting supernatant was used as a relaxin-3 administration solution. The amount of administration (relaxin-3 concentration in the administration solution) was about 50 pmol/rat when calculated using the standard curve with relaxin-3 in the experimental system shown in Example 7. Rats with guide cannula implantation were divided into 2 groups (6 animals per group) and administered with the relaxin-3 administration solution or a vehicle solution (a solution having the same composition as (2) above without relaxin-3) at a rate of 5 μl/2 minutes using an infusion pump. Immediately after the intracerebroventricular administration of the administration solution, rats were put in a cage where pre-weighed feed was placed and fed ad libitum. The amount of feeding was calculated by measuring the decrease in feed 2 hours later.

Molecule	effect on increase in transcription activity by forskolin [1]	blood leptin concentration [2]	amount of epididymal fat [3]	insulin concentration in blood [3]	leptin concentration in blood [3]	spontaneous locomotor activity (total for 90 minutes) [4]	body weight increase [5]	effect on increase in transcription activity by forskolin [6]	amount of feeding ([7]; from day 1)	body weight increase ([7]; from day 1 after operation)	amount of feeding [8]
insulin: related peptide (Invitrogen) used as specificity control in the SALPR reporter test [reference compound]	not affected										
B1	suppressed via SALPR activation the increase in transcription activity by forskolin	significantly increased	significantly increased	significantly increased	significantly increased	No significant change in locomotor activity	significant increase in body weight	suppressed the increase in transcription activity by forskolin	significant increase in the amount of feeding	significant increase in body weight	significantly increased
